Target: git1_human GIT1 (UniProt Q9Y2X7)
Sequence (Q9Y2X7 whole entry): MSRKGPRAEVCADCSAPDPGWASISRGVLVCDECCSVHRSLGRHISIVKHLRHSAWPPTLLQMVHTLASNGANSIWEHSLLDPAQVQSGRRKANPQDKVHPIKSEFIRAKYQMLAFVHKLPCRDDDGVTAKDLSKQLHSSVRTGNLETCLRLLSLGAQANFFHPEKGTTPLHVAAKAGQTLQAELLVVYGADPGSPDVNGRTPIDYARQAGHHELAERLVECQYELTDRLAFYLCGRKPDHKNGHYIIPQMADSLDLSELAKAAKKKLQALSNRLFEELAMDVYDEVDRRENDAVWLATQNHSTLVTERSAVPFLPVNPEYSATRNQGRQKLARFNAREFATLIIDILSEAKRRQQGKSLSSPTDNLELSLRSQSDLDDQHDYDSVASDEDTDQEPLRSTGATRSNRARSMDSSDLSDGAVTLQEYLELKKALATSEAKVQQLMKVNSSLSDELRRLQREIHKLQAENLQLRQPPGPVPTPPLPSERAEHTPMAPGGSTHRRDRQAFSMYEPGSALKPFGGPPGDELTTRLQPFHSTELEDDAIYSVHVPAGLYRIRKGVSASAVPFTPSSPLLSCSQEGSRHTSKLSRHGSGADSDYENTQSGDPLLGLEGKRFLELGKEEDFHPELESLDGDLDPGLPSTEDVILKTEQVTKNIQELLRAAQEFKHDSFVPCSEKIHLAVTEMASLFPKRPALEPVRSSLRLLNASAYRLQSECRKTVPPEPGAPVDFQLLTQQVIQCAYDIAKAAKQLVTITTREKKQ

Paxillin (Gallus gallus (Chicken)), P49024 S273D, sequence (P49024 whole entry S273D): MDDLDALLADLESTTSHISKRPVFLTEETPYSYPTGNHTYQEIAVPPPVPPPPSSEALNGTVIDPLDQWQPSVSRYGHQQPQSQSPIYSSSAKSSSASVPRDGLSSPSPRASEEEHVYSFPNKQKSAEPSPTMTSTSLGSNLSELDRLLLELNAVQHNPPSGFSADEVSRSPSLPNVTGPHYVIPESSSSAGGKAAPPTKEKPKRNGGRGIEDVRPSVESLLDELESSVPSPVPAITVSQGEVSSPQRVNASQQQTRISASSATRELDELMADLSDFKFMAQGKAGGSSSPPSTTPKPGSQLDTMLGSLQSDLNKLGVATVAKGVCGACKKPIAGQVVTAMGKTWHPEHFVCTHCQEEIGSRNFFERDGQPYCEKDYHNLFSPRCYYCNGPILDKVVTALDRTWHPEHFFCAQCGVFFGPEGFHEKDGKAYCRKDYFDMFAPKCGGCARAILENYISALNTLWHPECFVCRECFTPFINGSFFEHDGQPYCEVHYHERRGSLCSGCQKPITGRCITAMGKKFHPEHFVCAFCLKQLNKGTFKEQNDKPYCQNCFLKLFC
Paxillin (Gallus gallus (Chicken)), P49024 S273A, sequence (P49024 whole entry S273A): as the sequence (P49024 whole entry S273D) above, with D273A counted along it

| effect of a mutation on the interaction | Substance |
| --- | --- |
| decreasing interaction | Paxillin (Gallus gallus (Chicken)), P49024 S273A |
| increasing interaction | Paxillin (Gallus gallus (Chicken)), P49024 S273D |

From IntAct's records for PubMed 16717130
